Measurements: the supplement of paper PMC9170038

Tested on: MS2 coat protein
Test: apparent KD of MS2 coat protein; designed switch direction (-1 OFF switch, 1 ON switch): -1; higher = weaker reporter binding
In short: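 The buffer was Tris-HCl pH 7.5 with KCl, MgCl2, BSA, DTT, tRNA and Tween-20. In it, SNAP-549-labelled MS2 coat protein was titrated in doubling steps from 0.7 or 1.5 nM to 3 µM over chip-bound RNA switches transcribed by stalled E. coli RNA polymerase on Illumina chips. Apparent KD is the per-design median over clusters of curve fits to normalised fluorescence.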

[1] = Eterna round: R95, input ligand: microRNA oligo, concentration not stated
[2] = input ligand: microRNA oligo, concentration not stated
[3] = Eterna round: R95, input ligand: FMN 200 uM
[4] = Eterna round: R95, input ligand: none

Sequence | apparent KD of MS2 coat protein (input ligand: FMN 200 uM) [nM] | apparent KD of MS2 coat protein (input ligand: none) [nM] | other results
CCUCUAUUUGUGAGGAUAUCGAUAAAAUGGAUUGUCGAGAAGGCACAUGAGGAUCACCCAUGUAUUGAACAGCA [JR_BMEx4_Sub022] (Eterna round: R97, puzzle: Brourd's mod of Exclusion 4) | 231 | 40.4 | 
CCUCUGUGAGGAUAUCGCGGCGGGCUAACUCGCAAACAAAACGAGAAGGCACAUGAGGAUCACCCAUGUAGGUG [Cetiis] (Eterna round: R97, puzzle: Exclusion 4) | 39.1 | 262 | 
CCUCUGUGAGGAUAUGGGCCCGGGCCCGUGAGGGCCCGGGCCCAGAAGGCACAUGAGGAUCACCCAUGUGGCUU [Energy optimization 2] (Eterna round: R97, puzzle: Exclusion 4) | 94.4 | 20 | 
CCUGCACAUGAGGAUCACCCAUGUUAGGAUAUCUCGCCGCCUAAACGAAUGGUGGCCCAGAGAAGGAACAGGGC [Riatbege] (puzzle: Exclusion 1) |  |  | apparent KD of MS2 coat protein [1]: 26.5 nM
CCUGCACAUGAGGAUCACCCAUGUUAGGAUAUCUCGCCGUCGGCUUGCCGACGGUAUUAGAGAAGGGACAAGGG [JL Tixe mod 3] (puzzle: Exclusion 1) |  |  | apparent KD of MS2 coat protein [1]: 39.5 nM
CCUGUACAUGAGGAUCACCCAUGUUAGGAUAUUCAGCCCGUCGAGUAUAAGGGUUUAAGAAGAAGGGACGUGGC [Beanused] (puzzle: Exclusion 1) |  |  | apparent KD of MS2 coat protein [1]: 13.9 nM
CCUGUUCGGGUUGGUUUGGGCGGGACAUGAGGAUCACCCAUGUAGGAUAUUUUGGCUGCCGGUCGGGAGAAGGACAUGCUUGGG [-22.4, -21.3 kcal, 17% A] (Eterna round: R96, puzzle: Exclusion NG 3) | 135 | 98.3 | apparent KD of MS2 coat protein [2]: 61.3 nM
CCUUAUCCACAGGAUAUGCUCAUCUAAUGAUGAGCAGAAGGGUGGACAUGAGGAUCACCCAUGUUUAUCAAUGG [Omei Ex6 D3] (Eterna round: R97, puzzle: Exclusion 6) | 675 | 1040 | 
CCUUCAGUAGUUAGGAUAUUUGGCGUCGAGGCGCAAGAGAAGGGACAUGAGGAUCACCCAUGUGAGUAUGGUAG [Eternabot (L1) Solution 35] (Eterna round: R97, puzzle: Brourd's mod of Exclusion 4) | 61.9 | 63.1 | 
CCUUUGUCAGGAUAUCAGAACGCGCUCCUAGGGAGCGCAAAUGAGAAGGGACAUGAGGAUCACCCAUGUAAAGA [Erditive] (puzzle: Exclusion 4) |  |  | apparent KD of MS2 coat protein [3]: 228 nM; apparent KD of MS2 coat protein [1]: 48.9 nM; apparent KD of MS2 coat protein [4]: 59.2 nM
CCUUUGUCAGGAUAUCAGUACAGGUCGAGUUUAGACCUGUUUGAGAAGGGACAUGAGGAUCACCCAUGUAAAAC [Inzaerle] (puzzle: Exclusion 4) |  |  | apparent KD of MS2 coat protein [1]: 78 nM
CGAAAGGUAGGAUAUACGAAGAAAAAGGGUAGAAUAAUAACACAUGAGGAUCACCCAUGUAGAAGGACCAAAGG [Mat - Exclusion 2 - Mod of my Tesla design - D12] (puzzle: Exclusion 2) |  |  | apparent KD of MS2 coat protein [3]: 13.3 nM; apparent KD of MS2 coat protein [1]: 19.4 nM; apparent KD of MS2 coat protein [4]: 33.2 nM
CGAGCACGUGUAAGGAUAUGCUCGCUCUAUUUGGCGCAGAAGGUACAUGAGGAUCACCCAUGUAGCGACUUGGG [Eternabot (L2) Solution 7] (Eterna round: R97, puzzle: Brourd's mod of Exclusion 4) | 41.6 | 27.6 | 
CGAGCUGCUGUGAGGAUAUACCUAUGGAUACAUAGGUAGAAGGCACAUGAGGAUCACCCAUGUCCUGCAGCUCG [jl-bmx4-4.60 Eli mod] (Eterna round: R97, puzzle: Brourd's mod of Exclusion 4) | 232 | 44 | 
CGAGCUUUUUGCUCGUCUUACAUGAGGAUCACCCAUGUCGAGCGAGCGAGCGAGCGAAAGUUUGUUUGUUUGUUUGA [Mod of sellena 3] (Eterna round: R97, puzzle: Sensor, turn-off variant 1) | 21.4 | 20.4 | 
CGAGGUAGAGGAUAUACGUGGAUGUAAAUUCAUGAUAUUCUACAUGAGGAUCACCCAUGUAGAAGGCUAUAGCG [JR_Ex2_Sub077] (Eterna round: R97, puzzle: Exclusion 2) | 26.9 | 18 | 
CGAGUACAUGAGGAUCACCCAUGUUAGGAUAUUGGUAUCAAAAGAGUCCGAUCUGAUCCAAGAAGGAGCAUGCC [Eternabot (L2) Solution 78] (Eterna round: R97, puzzle: Exclusion 1) | 32.5 | 27.1 | 
CGAGUCUACGAGGAUAUACUUUGAAUUAUCGGCGUAGAAGGCGUGACUUGAGGAUCACCCAAGUGAUAAACCUA [Ririaned] (Eterna round: R97, puzzle: Exclusion 6) | 54.1 | 39.6 | 
CGAUAUAAGUCAGGAUAUGAGCGCAACUGACGAUCAGAAGGGACACAUGAGGAUCACCCAUGUGAUCUAUCAAUAUUAUACAUC [Prohibition 92 - Jieux - Exclusion NG 1] (Eterna round: R96, puzzle: Exclusion NG 1) | 25.5 | 21.5 | apparent KD of MS2 coat protein [2]: 16.2 nM
CGAUAUUAUGUCAGGAUAUACAUUGCGAAAGCAAUGUAGAAGGGACAUGAGGAUCACCCAUGUUCCUACUAUCG [Omei A 1] (puzzle: Brourd's mod of Exclusion 4) |  |  | apparent KD of MS2 coat protein [1]: 11.9 nM
CGAUGAGGAGUGAGGAUAUCGUGUUCGAAAGAACGUGAGAAGGCACAUGAGGAUCACCCAUGUGAUCCUCAUCG [Omei Ex4B A21] (Eterna round: R97, puzzle: Brourd's mod of Exclusion 4) | 29.8 | 24.8 | 
CGAUGCACGAAUCCACAUGAGGAUCACCCAUGUCGUGUUAGCGAGGAUAUCGGAGACACAUAGUAUGAGAAGGCGCGAACCUGA [Ex NG3 #22] (Eterna round: R96, puzzle: Exclusion NG 3) | 13.1 | 13.1 | apparent KD of MS2 coat protein [2]: 11.9 nM
CGAUGGCGAGGAUAUACAUGAGGAUCACCCAUGUGAGAGAUACUAGUGAGGUCGAUUAGUAGAAGGCGCUGUCG [Mat - Exclusion 3 - Eli Mod - D70] (Eterna round: R97, puzzle: Exclusion 3) | 883 | 38.6 | 
CGAUGUAGAGGAUAUACGUGAAUUUUGUUAUUUUUUAAUUUACAUGAGGAUCACCCAUGUAGAAGGCUAUAUCG [JR_Ex2_Sub087] (Eterna round: R97, puzzle: Exclusion 2) | 91.9 | 22.2 | 
